Columns and labels:
[1] = molecular target: human GPVI extracellular region-human Fc fusion protein (hGPVI-hFc) (human); assay: SPR (BIACORE3000) as in Example 5
[2] = molecular target: human GPVI extracellular region-human Fc fusion protein (hGPVI-hFc) (human); assay: ELISA on immobilised hGPVI-hFc; +++ absorbance more than 2.0
[3] = molecular target: human GPVI extracellular region-human Fc fusion protein (hGPVI-hFc) (human); assay: ELISA on immobilised hGPVI-hFc; ++ absorbance 1.0 to 2.0
[4] = molecular target: human GPVI extracellular region-human Fc fusion protein (hGPVI-hFc) (human); assay: ELISA on immobilised hGPVI-hFc; + absorbance 0.5 to 1.0
[5] = molecular target: human GPVI extracellular region-human Fc fusion protein (hGPVI-hFc) (human); assay: SPR (BIACORE 3000), hGPVI-hFc on CM5 chip, 0-800 nM, 1:1 binding fit
[6] = molecular target: rat GPVI-human Fc (rGPVI-hFc) (rat; mouse); assay: ELISA on immobilized antigen; control

Chain of human GPVI extracellular region-human Fc fusion protein (hGPVI-hFc) (human) (chain, as listed by the source limits assumed): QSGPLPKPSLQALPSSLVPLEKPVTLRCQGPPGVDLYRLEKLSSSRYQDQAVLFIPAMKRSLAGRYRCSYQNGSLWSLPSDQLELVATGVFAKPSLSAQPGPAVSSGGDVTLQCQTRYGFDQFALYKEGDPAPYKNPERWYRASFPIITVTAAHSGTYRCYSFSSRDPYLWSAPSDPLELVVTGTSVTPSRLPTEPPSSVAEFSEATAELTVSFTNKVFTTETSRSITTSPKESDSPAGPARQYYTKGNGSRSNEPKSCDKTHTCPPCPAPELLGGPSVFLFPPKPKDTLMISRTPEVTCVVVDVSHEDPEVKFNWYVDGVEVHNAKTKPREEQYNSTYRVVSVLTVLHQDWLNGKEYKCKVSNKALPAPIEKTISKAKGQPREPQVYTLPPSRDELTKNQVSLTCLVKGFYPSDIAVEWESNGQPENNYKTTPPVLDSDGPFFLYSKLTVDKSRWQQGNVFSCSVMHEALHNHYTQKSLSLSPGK

KD (Relative value) against F1232-37-2 (relative to KD of F1232-37-2) [1]	absorbance [2]	absorbance [3]	Binder	further results
0.00298	> 2 od		F1257-3-1 (antibody, V domains shown) VH: QVTLKESGPGMLQPSKTLSLTCSFSGFSLSTSGMVVSWIRQPSGKSLEWLAAIDWDGDKYYNPSLKSRLTVSKDTSNTQVFLKISSVDIADTATYYCARTPYYGYKEAYYFDYWGQGVKVTVSS VL: DIQMTQSPASLSASLEEIVTITCKASRAIDDYLSWYQQKPGKSPQLLIYDATSLADGVPSRFSGSRSGTQYSLKISRPQVDDSGIYYCLQSYSTPWTFGGGTKLDLKR	
0.00293		1 to 2 od	F1245-7-1 (antibody, V domains shown) VH: QVQLQQPGAELVKPGASVKLSCKASGYTFTSYWMHWVKQRPGQGLEWIGMIHPNSGSTNYNEKFKSKATLTVDKSSSTAYMQLSSLTSEDSAVYYCASPVTAVVEYYFDYWGQGTTLTVSS VL: SIVMTQTPKFLLVSAGDRVTITCKASQSVSNDVAWYQQKPGQSPKLLIYYASNRYTGVPDRFTGSGYGTDFTFTISTVQAEDLAVYFCQQDYSSLTFGSGTKLEIKR	
0.00103	> 2 od		F1249-18-2 (antibody, V domains shown) VH: QVQLQQPGAELVKPGASVKLSCKASGYTFTSYWMHWLKQRPGQGLEWIGMIHPNSDITNYNEKFKNKATLTVDKSSSTAYMQLSSLTSEDSAVYYCARSGDYYAMDYWGQGTSVTVSS VL: SIVMTQTPKFLLVSAGDRVTITCKASQSVSNDVAWYQQKPGQSPKLLIYYASNRYTGVPDRFTGSGYGTDFTFTISTVQAEDLAVYFCQQDYSSPPTFGGGTKLEIKR	
0.00285		1 to 2 od	F1249-5-1 (antibody, V domains shown) VH: QVQLQQPGAELVKPGASVKLSCKASGYTFTSYWMHWLKQRPGQGLEWIGMIHPNSDITNYNEKFKNKATLTVAKSSSTAYMQLSSLTSEDSAVYYCARLGDYYAMDYWGQGTSVTVSS VL: SIVMTQTPKFLLVSAGDRVTITCKASQSVSNDVTWYQQKPGQSPKLLIYYASNRYTGVPDRFTGSGYGTDFTFTISTVQAEDLAVYFCQQDYSSPPTFGGGTKLEIKR	
1.43		1 to 2 od	F1245-5-1 (antibody, V domains shown) VH: QVQLQQPGAELVKPGASVKLSCKASGYTFISYWMHWVKQRPGQGLEWIGMIHPNSGSTHYNEKFKSKATLTVDKSSSTAYMQLSSLTSEDSAVYYCARGGVTPVAYWGQGTLVTVSA VL: SIVMTQTPKFLLVSAGDRVTITCKASQSVSNDVAWYQQKPGQSPKLLIYYASNRYTGVPDRFTGSGYGTDFTFTISTVQAEDLAVYFCQQDYSSPWTFGGGTKLEIKR	

Further lines, the binder ahead of its results:

Binder	KD (Relative value) against F1232-37-2 (relative to KD of F1232-37-2) [1]	absorbance [2]	absorbance [3]	further results
F1245-4-1 (antibody, V domains shown) VH: QVQLQQPGAELVKPGASVKLSCKASGCTFTSYWMHWVKQRPGQGLEWIGMIHPNSDNTNYNEKFKSKATLTVDKSSSTAYMHLSSLTSEDSAVYYCATHYYDYVDYWGQGTTLTVSS VL: NIVMTQTPKFLLVSAGDRVTITCKASQSVSNDVAWYQQKPGQSPKLLIYYASNRYTGVPDRFTGSGYGTDFTFTISTVQAEDLAVYFCQQDYSSPWTFGGGTKLEIKR	0.00427	> 2 od		
F1245-6-2 (antibody, V domains shown) VH: QVQLQQPGAELVKPGASVKLSCKASGYTFTSYWMHWVKQRPGQGLEWIGMIHPNSGSTNYNEKFKSKATLTVDKSSSTAYMQLSSLTSEDSAVYYCARGGVTPVAYWGQGTLVTVSA VL: SIVMTQTPKFLLVSAGDRVTITCKASQSVSNDVAWYQQKPGQSPKLLIYYASNRYTGVPYRFTGSGYGTDFTFTISTVQAEDLAVYFCQQDYSSPWTFGGGTKLEIK	0.122		1 to 2 od	
F1251-1-1 (antibody, V domains shown) VH: QVNLLQSGAALVKPGASVKLSCKASGYTFTDYYIHWVKQSHGKSLEWIGYINPNSGYTNYNEKFKSKATLTVDKSTNTAYMELSRLTSEDSATYYCTRCNSGYGDWFAYWGQGTLLTVSS VL: DIQMTQSPPVLSASVGDRVTLSCKASQNINKNLDWYQQKHGEAPKLLIYYTNNLQTDIPSRFSGSGSGTDYTLTISSLQPEDVATFYCYQYNSGPGTFGAGTKLELKR	7.9			absorbance [4]: 0.5 to 1 od
F1232-37-2 Fab (Fab, V domains shown) VH: VQLQQSGPELVRPGESVKISCKGSGYTFTDYAIHWVKLSHAKSLEWIGVISIYYDDTNYNQKFKGKATMTVDKSSSTAYLELARLTSEDSAIYYCARRRDSSGPYAMDYWGQGTSVTVSS VL: DIVLTQSPASLAVSLGQRATISCRASESVDSYGNSFMHWYQQKPGQPPKLLIYRASNLESGIPARFSGSGSRTDFTLTINPVEADDVATYYCQQSNEDPYTFGGGTKLEIKR				dissociation constant relative to whole antibody (defined as one) (relative to KD of whole F1232-37-2) [5]: 0.6
F1249-24-1 (antibody, V domains shown) VH: QVQLQQSGAELVRPGVSVKISCKGSGYTFTDYAMHWVKQSHAKSLEWIGVISTYYGDTSYNQKFKGKATMTVDKSSSTAYMELARLTSEDSAIYYCARAEDYDPWFAYWGQGTLVTVSA VL: DIVLTQSPASLAVSLGQRATISCRASESVDSYGNSFMHWYQQKPGQPPKLLIYRASNLESGIPARFSGSGSRTDFTLTINPVEADDVATYYCQQSDEDPLTFGAGTKLELKR	0.00821	> 2 od		
F1249-30-1 (antibody, V domains shown) VH: QVQLQQSGAELVRPGVSVKISCKGSGYTFTDYAMHWVKQSHAKSLEWIGVISTYYGDTSYNQKFKGKAAMTVDKSSSTAYMELARLTSDDSAIYYCARAEDYDPWFAYWGQGTLVTVSA VL: DIVLTQSPASLAVSLGQRATISCRASESVDSYGNSFMHWYQQKPGQPPKLLIYRASNLESGIPARFSGSGSRTDFTLTINPVEADDVATYYCQQSDEDPLTFGAGTKLELKR	0.347	> 2 od		
F1246-1-1 (antibody, V domains shown) VH: EVQLVESGGDLVKPGGSLKLSCAASGFTFSSYGMSWVRQTPDKRLEWVATISNGGTYTYYPDSVKGRFTISRDNAKNTLYLQMSSLKSDDTAMYYCGRLRDYYAMDYWGQGTSVTVSS VL: DIVLTQSPASLAVSLGQRATISCRASESVDSYGNSFMHWYQQKPGQPPKLLIYRASNLESGIPARFSGSGSRTDFTLTINPVEADDVATYYCQQSNEDPWTFGGGTKLEIKR	0.884		1 to 2 od	
F1232-37-2 (antibody, V domains shown) VH: VQLQQSGPELVRPGESVKISCKGSGYTFTDYAIHWVKLSHAKSLEWIGVISIYYDDTNYNQKFKGKATMTVDKSSSTAYLELARLTSEDSAIYYCARRRDSSGPYAMDYWGQGTSVTVSS VL: DIVLTQSPASLAVSLGQRATISCRASESVDSYGNSFMHWYQQKPGQPPKLLIYRASNLESGIPARFSGSGSRTDFTLTINPVEADDVATYYCQQSNEDPYTFGGGTKLEIKR				absorbance (ELISA) [6]: 0.137
F1249-20-1 (antibody, V domains shown) VH: QVQLQQSGAELVRPGVSVKISCKGSGYTFTDYAMHWVKQSHAKSLEWIGVISTYYGDTSYNQKFKGKATMTVDKSSSTAYMELARLTSEDSAIYYCARAEDYDPWFAYWGQGTLVTVSA VL: DIVLTQSPASLAVSLGQRATISCRASESVDSYGNSFMYWYQQKPGQPPKLLIYRASNLESGIPARFSGSGSRTDFTLTINPVEADDVATYYCQQSDEDPLTFGAGTKLELKR	0.00205	> 2 od		

Reference: EP1876240B1
